Measured values taken from US20220281966A1.

Target: IL-13 (human IL-13, preparation not specified) (human) (UniProt P35225)
Test: cell-based or functional assay

IL-13 (human IL-13, preparation not specified) (human), sequence (P35225 35-146 limits assumed): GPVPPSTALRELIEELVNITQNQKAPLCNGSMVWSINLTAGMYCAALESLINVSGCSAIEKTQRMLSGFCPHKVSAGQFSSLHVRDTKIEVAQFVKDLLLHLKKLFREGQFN

B1: murine IL-13 receptor α2/FC (Fc fusion, UniProt O88786 22-334, looked up, not shown: a dimerising Fc or GST)
chain: LEIKVNPPQDFEILDPGLLGYLYLQWKPPVVIEKFKGCTLEYELKYRNVDSDSWKTIITRNLIYKDGFDLNKGIEGKIRTHLSEHCTNGSEVQSPWIEASYGISDEGSLETKIQDMKCIYYNWQYLVCSWKPGKTVYSDTNYTMFFWYEGLDHALQCADYLQHDEKNVGCKLSNLDSSDYKDFFICVNGSSKLEPIRSSYTVFQLQNIVKPLPPEFLHISVENSIDIRMKWSTPGGPIPPRCYTYEIVIREDDISWESATDKNDMKLKRRANESEDLCFFVRCKVNIYCADDGIWSEWSEEECWEGYTGPDSK
IC50, Eotaxin-1 assay, Average: 32 pM | IC50, Eotaxin-1 assay, n = 1: 29 pM | IC50, Eotaxin-1 assay, n = 2: 39 pM | IC50, Eotaxin-1 assay, n = 3: 29 pM

B2: human IL-13 receptor α2/Fc (Fc fusion, UniProt Q14627 27-343, looked up, not shown: a dimerising Fc or GST)
chain: DTEIKVNPPQDFEIVDPGYLGYLYLQWQPPLSLDHFKECTVEYELKYRNIGSETWKTIITKNLHYKDGFDLNKGIEAKIHTLLPWQCTNGSEVQSSWAETTYWISPQGIPETKVQDMDCVYYNWQYLLCSWKPGIGVLLDTNYNLFYWYEGLDHALQCVDYIKADGQNIGCRFPYLEASDYKDFYICVNGSSENKPIRSSYFTFQLQNIVKPLPPVYLTFTRESSCEIKLKWSIPLGPIPARCFDYEIEIREDDTTLVTATVENETYTLKTTNETRQLCFVVRSKVNIYCSDDGIWSEWSDKQCWEGEDLSKKTLLR
IC50, Eotaxin-1 assay, Average: 131 pM | IC50, Eotaxin-1 assay, n = 1: 128 pM | IC50, Eotaxin-1 assay, n = 2: 147 pM | IC50, Eotaxin-1 assay, n = 3: 119 pM
